According to the domain aggregation screens of Martell et al. (2025):

Experiment: soluble fraction after stress (log2 fold change); higher = more stays soluble; pooled small domains, quantitative proteomics
Settings: stress: 50 degC
Summary of the method: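 After stress at 50°C, the amount of each protein still soluble was measured. This was done on pooled custom libraries of small protein domains, using high-throughput quantitative proteomics. The figure given is a base-two log fold change and stands for aggregation propensity, with higher values meaning more protein stays in solution.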

Sequence | soluble fraction (log2)
HMIILDASASRAIGNGTIEETKWDFGNGESSTNRGGPIVERQIYANQAAYILKLSMKTNDGQLFTKEIQLL | -0.0666
HMSKKMLASIFDTISGIGKKRLKKIWDNYTSLNELKDDSLENIYAKTQIPINLITKIKEKLE | -0.37
HMRKYKIKEELPDNIYKIIQDNPGIVQKDIYDILGREYQQNISSYIYSMDKNGVIKRDKHGNSYKLYL | -0.318
HMSTVISPLPGNIIKVLVPEGKSVKRGDTILTIESMKMENSIKAAYDGVVKKIYVQQAQIVMQGDPLFDL | -1.24
HMHRFAVLDTVREVAAGGVAATLSIGVGRDADSFDALFKNASMALEMALSRGGDQAVVKDRMNFQFYGG | 0.0659
HMELEENTERVLNILIENDIISENDIAEKLEVKINGARKALYKLKEVGFVEYTKERDEEKKWWYIYFWKLN | -0.0109
HMENVVESIYNKMVESITNGQWAAGSKIPTENELAKTYQVSRSSVRQAISRLKALGLLESRQGSGTVIKK | 0.272
HMVFKSAQEGLDFYSKQLNDVDATLGRIRRGEESGNGLYGSNRVKNLEEQRKKLDSFVTAYRNAVNAT | 0.08
HMSAPQKWDGSLQDFIRFKQEAKTLMDNIPNKRLALNAILETISDGKMRKRLAKYDGPESALKSLELEFGN | -0.0592
HMPMDDETWDALSLFAYKRYARENGWPLMIGAEALRDTFASYFPLDSSTWQDRSSHYLTYQDGIYTRT | -0.53
HMKNEVENLSYMINRIIEYRDLNNLSNKNLANKIGISEALLSYILNGRRKLSKEIQRKIALFLLND | -1.49
HMAPRSSAVYFYLSQVALKKNQPRKAEAMARRGLTVSQDANRRRALWQLILRSGQAQNNTRVIREAQQAL | 0.19
HMDSSNLSLIAGVGPTIEKKLRAAGITSWEQIAAWTEADVAKYDEELNLRGRITRDEWIEQAKELLAGKPP | -0.0993
HMSTALTPLTTREREVLALMAEGLTNSGIAARLVLTDRTVETHVSRILHKLGLGETTTNEHRRVLAVLRYL | -1.5
HMTVDYDKFTKDTVVQHNKFGKGVIIMTSGDGEDKIASIAFQGLGVKRFSLAIAASNLKILGKVNED | -0.133
HMNPKTELMVYLKKRDEWVASQILSDVLQVSTRTIRKFVKEINMDYQTENVILSSSKGYKLNQNLLSSL | -1.2
HMSLETRRYQLPRTDAQTASGLLRSLSGLPGVREVNLSGEGVAYLKVDSKGFDEQNVIKLLAGE | 0.307
HMNRQTGTVKWFNDAKGFGFITPESGPDLFVHFRSIQGAGFKSLQEGQRVTFVAVQGQKGMQADQVQA | -0.762
HMAEPIAAGKYTVSTSGSVLNMRVSPDADSQVLEKIPNGTIVEVTKSVLGWAYVTYNSAQGWVSSAYLV | 0.15
HMTYQTVRYGSTGSAVRQLQSALNQKGYQLSEDGIFGAKTRAAVRDYQKKNGLLLDGIAGSQTWNHLMS | 0.224
HMAVDVNKATAAELDSIKGIGPAISAKILEEKKKGGNFKDWNDLVTRVSGVGEANAAKFSSEGLTVGGAS | 0.0629
HMNLAISAYQQLKSDIIRGVYAPGEKLLMSRLKVRYGLGIGPMREALSQLVSEHLVTAASQRGYRVAGM | -1.64
HMIFRPALITDLDAVERHYTELLTREAETGRSSTNWSLGVYPTRQTATAAQAAGTLWVLEREGQVVASVI | -0.245

Sequence | soluble fraction (log2)
HMNSLTVPDITNRTLAEASQVLLDMGLTPIPDAVAKDGVGDDVVYAQSPPPNVGAREGDVVTITYNPA | 0.156
HMEYKNYYDSPVGRLELLSDGVSLTAVLFENQQGDGTREENTSLAIFKEATQWLDAYFKGDNPEITIPL | 0.0756
HMVSQELIMLGNRIREYRKERGFSQEILAEKSGVSTNTISRIEGGQMAMSVGILQRIVKALGVDANVMLG | -0.332
HMPPALTELLSVRTNASGTIDYLLPDRSAGLRVENGSKYSGMVPDSIYRLVAIYEIKDAKEPSAYIYTI | -0.00921
HMVDFHAAYSILRIAPGASWQEIQAAYEKLNDAWREDRYPQVPFWNEKAAFKRREVEQAYEKLRKFHALRH | -0.845
HMEDSHIYPVSFNGKMRFKLELPVSMNKKEIEEVVLQHEDAQKWLNGQNPKKVIVVPKRIINIV | 0.0081
HMSRDYKTELQERLQVNGPVKIEYQVIAEDESKPSFKVQLLVNDKKISEGQGRNKKAAEQQAAQAAL | 0.0625
HMSDPELNDNEKKIYDIIFNKKSMDLTELKNLSELSNKQWDKGIKSLSKQDFVKVIKTEEALIVELV | -0.302
HMHLKDEHGLTPKQRAFADEYVITLNATVSYKKIYSVKRDSVASTNGSRLLGNANVKAYIDKRLEE | -2.19
HMGEKFTFGQIAKAKAYAKTYANDMTSAVKNIEAIATGLSKHPEVADTLKKANENQELNRITKLAG | 0.149
HMTKSTLQRQKIIADLIESGNISSQNQLKGLLKKNSLLITQATLSRDLSELGAIKKRQKDGLLVYVLPK | -0.511
HMATIADILAEHKDKEGPLLPVLHDVQKMFGHVSEEAMREIAQALNLTRAEVYGVVSFYHDFRKEVE | -0.975
HMKLIPLTDMRGQLRSGAPLPWGVRDAQGNLLLGKGHVIASDDMLEALLARGMFVDAEEAKAARG | 0.00271
HMTDSQLVEAENHVALRQAMAHLGPRERELIGLYYFEEQSQTQIAARFGVSQMQVSRWLTSAVGRIRGQMA | -0.00256
HMKFPNVGENLRLLRQEMGISLDKASKMTGVSKAMLGQIERGESSPTVSTLWKISSGFKINFTTLLSE | -2.38
HMNPLPALLRYFRQKAGLTQQDVAAALSISRSGYANYEEGRNIPNIEQAIKLSELLNHDFLYAYTLSS | -1.99
HMAEQDILQSVYPHIGGQDNVSRTISRNGTLYLMLKDASAVDLKAVKQVPGIADAALERGRLTLQLEE | 0.0398
HMTQEAMRSLRKSLQNLSSRQQVIFMLRHYEGLALKEIAEHLGLETGTVKAHLHRAVTQLRKDLVE | -1.68
HMQEKLELIIPVSSIGKRADVAIQDLLSSYSRAKIQEWIKSGFILLESKKISPKDIFMGGERVFIDIQQDE | -1.41
HMRRQRNPEIFDQLVNKFHFTFTQTQQLKQLIKRWHMLFPGKSLKSAIQGYKSAKEILTYINDSLDVVE | 0.124
HMGLPLETVVTHATKLEIVRDGRVSGSIGLSAGVKVDVIALEGDNLQVRYRSLSGRVPVAHTGLAALA | 0.105
HMTPFLVRVDISDLNIRTGAGTNYSRTGQYTGKGIFTILEVKSGQGSDAGWGRLKSGAGWISLDYTTR | -2.82
HMSQSIGQEKALSIALADAGVQKENALGLEVKGEYDDGQLLYEVEFRAGGVEYEYEVRASDGRIVKAERD | 0.13

Sequence | soluble fraction (log2)
HMLDQAVPVFETPKYAVSYIQNRLVEMKAASPEEAASRFYESISESERRGLFEALLIKEAEES | -0.00154
HMNSPSKVIDISQLRKGMFVQLDLGWMSHPFAVGSFKVSTDEQIQTLRGLGLSEVRYIPEKSDPA | -0.514
HMEIPMRDKLKTYIDYLFAGAPQTAATAETKAEILQNTLDKYDDLIAEGKTPEAAYSLAVSGIGDLGDF | -0.0827
HMSDPDPAEQALLRQFMTRYAAYRRRGQHPAGAFRTASLEVFGQEPSGDLRDVIVDLESGLV | -0.137
HMNYIEWKNTFKKYLYLLPIKEEKETLAYFDEQYNKLNPKDLDNVENIFSDPIDKAAFVVAFYLEMEDEIK | -0.612
HMNRLEFLQGLKAELEGRVPHSIIQENLRYYDSYISDEAAKGQSEEDVVESLGGPRIIARTIVDAA | 0.134
HMFDKVSVNNLAEAIGRLDGIYQDVLRLYYVHELPSKEIGKILNINHLTVNTRLKRAREKLFKMLKEE | -2.57
HMQRADYLILYYIKMQAEQHPDSKVYLADLAAVMGLKVTELSKAVEKLQDNGFVAWKTDREAGRTYVELS | -1.31
HMDEWDPAILYVGLDYEDAAQIATRLATSGVPYRLSPDGTMITVPDDQVNNMRLTLAGEGFPH | -0.0702
HMPVPSPAEQTATQLANIERHTGITVDGWTRAIAEAGAAKHGEIVAWLKQQGLTHGNANALAHAVRARQSG | 0.27
HMGTDFRPVFQYVDELVRAGEFTNLKGMIYFTDGRGIFPEKKPDYDAAFVFLDDGYDPPDVPVWAIKLVL | -0.161
HMGSIDYLVGSRLRQYRRLRGYSLIEFSAMLHRSKSAISKYERGEVSIDLRTLNEMARLLDIPLSGLLL | -4.56
HMRAGHDFEALKHIESSLDKHLTDEGIKIKSEKRGAIVARWYQSHVEGREVTDDDVHTWIELFF | -3.5
HMRVKLVKKSILASGGENIRVDKFLSNHILTMTRTQIKKLFLDGLVQVNKSFVKPGSILKGNEIITFSIPE | -1.8
HMKVTTGIDGLIGEEGVALSDFSGKGKIMVHGEIWNAEFSGEVKKGEVLLVEKANGMTLITRKKN | 0.561
HMSAEVSEIEIQRIISYYRNQNGVPDKYNEIFDRIAAQYTDEQLKVISNFLPSDVKQYLSFNNEKYKSLG | -0.295
HMIAVLKQGVSKQQVENLITWFRSRGLDVHISEGKFQTIIGLIGDTSKVDIDLLNGLEIIESVKRI | -0.0376
HMHQPPDLDDFEAFVGRVKPALLQALVATYGPVDGREATVDALSWAWEHWDRLADVDHPVGYLYRV | 0.0368
HMITNESEIERIVEAIISKNPESIAQYRSGITKVLGFLVGQVMKETKGRANPALVNRIIISKME | -0.281
HMSNNLAYSQFLDRVKNKEIRKVEIRGQSIVGYTSNNETFKTYAPLNDPKMYDELLTNDVQVQVDPP | 0.0519
HMYDEAAIRKAVMTFVTDNRDERLDLAKISAVLTSKFGNINFDELGYKRFSSFIDSFPELRRNNTFVSLR | -0.312
HMGNIITQEAAVKLAQDRVPNATLVKIEYDFDDGRPVYEGELREGRWEYEFEIDAATGEFLKWEKD | 0.04
